Biological target: N-terminally GFP-tagged mouse ClC-3c (mouse)
Test: FRET or BRET; FLIM-FRET (phasor analysis of the donor lifetime) in living SH-SY5Y cells transfected with the IRES construct; GFP on ClC-3 as donor, mCherry on ClC-4 as acceptor; regions of interest at the plasma membrane or intracellular areas of intermediate fluorescence; tauD from cells expressing only the donor

N-terminally GFP-tagged mouse ClC-3c (mouse), sequence (P51791 whole entry): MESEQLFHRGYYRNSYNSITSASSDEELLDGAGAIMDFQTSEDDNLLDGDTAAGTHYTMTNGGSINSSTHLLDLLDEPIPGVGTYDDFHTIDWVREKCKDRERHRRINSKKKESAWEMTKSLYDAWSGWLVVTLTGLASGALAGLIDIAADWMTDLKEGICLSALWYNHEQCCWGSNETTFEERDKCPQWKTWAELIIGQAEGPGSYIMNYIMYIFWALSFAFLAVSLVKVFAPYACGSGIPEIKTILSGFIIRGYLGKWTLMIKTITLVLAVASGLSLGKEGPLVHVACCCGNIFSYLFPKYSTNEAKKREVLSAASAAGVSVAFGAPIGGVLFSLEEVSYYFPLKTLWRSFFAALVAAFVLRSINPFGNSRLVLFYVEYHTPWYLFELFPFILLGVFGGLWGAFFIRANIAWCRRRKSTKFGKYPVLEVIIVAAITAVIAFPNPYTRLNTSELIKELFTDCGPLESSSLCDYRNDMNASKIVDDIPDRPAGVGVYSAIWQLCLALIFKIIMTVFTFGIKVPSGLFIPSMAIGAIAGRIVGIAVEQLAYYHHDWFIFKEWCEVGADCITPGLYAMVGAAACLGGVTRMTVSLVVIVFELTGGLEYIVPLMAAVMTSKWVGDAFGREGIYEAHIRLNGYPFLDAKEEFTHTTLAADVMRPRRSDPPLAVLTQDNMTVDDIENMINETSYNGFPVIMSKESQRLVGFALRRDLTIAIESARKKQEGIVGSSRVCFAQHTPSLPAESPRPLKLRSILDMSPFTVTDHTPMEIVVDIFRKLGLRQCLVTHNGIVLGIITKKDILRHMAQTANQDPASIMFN

donor fluorescence lifetime in the presence of the acceptor (τDA; unquenched donor τD = 2.22ns): 1.89 ns
Substance: N-terminally mCherry-tagged human ClC-4 (from UniProt P51793 1-760) (natural protein)

— paper PMC12731782
